Laboratory results from patent publication US20240272170A1 (QUANTUM SI, published 2024).

Key:
[1] = biological target: T1, QP1165 after cleavage to N-terminal isoleucine (IAFLKQRVWK); experiment: on-chip dynamic sequencing of QP1165, PS1875 run, trace Aperture=295010
T1 peptide: IAFLKQRVWK

[2] = biological target: T2, QP1165 after cleavage to N-terminal leucine (LKQRVWK); experiment: as above
T2 peptide: LKQRVWK

[3] = biological target: T1, QP1165 after cleavage to N-terminal …; experiment: on-chip dynamic sequencing of QP1165, PS1875 run, trace Aperture=340501
[4] = biological target: T2, QP1165 after cleavage to N-terminal …; experiment: as above
[5] = biological target: T1, QP1165 after cleavage to N-terminal …; experiment: on-chip dynamic sequencing of QP1165, 500 nM PS1875 plus five recognizers, 3369 alignments
[6] = biological target: T2, QP1165 after cleavage to N-terminal …; experiment: as above
[7] = biological target: T1, QP1165 after cleavage to N-terminal …; experiment: on-chip dynamic sequencing of QP1165, 500 nM PS1875 plus five recognizers, 11565 alignments
Description: (§1) The semiconductor chip was placed in the sequencing device and a chip check was performed to test electronic circuit function and to optimize laser coupling alignment. The chip was then removed from the device socket and the chip was washed twice with 50 μL of 70% isopropanol, followed by four washes with 30 μL of wash buffer (50 mM MOPS pH 8.0, 60 mM potassium acetate, 50 mM glucose, 20 mM magnesium acetate, and surfactant mix) through a flow cell attached to the chip. A second chip check was then performed. The laser was then blocked via an integrated software-controlled shutter, peptide complex was added to a final concentration of 1-10 nM and mixed thoroughly, and the chip was incubated for 15 min. The chip was then washed six times with wash buffer, followed by addition of an imaging solution (wash buffer with 5 mM Trolox and an oxygen scavenging system). The laser was unblocked and the occupancy percentage (target 10-30%, Poisson distributed) was recorded by acquiring a photobleaching signal from a fluorophore attached to the peptide complex during 5 min of laser illumination. […] Data was recorded for 15 min. The laser was then blocked briefly and aminopeptidases were added to the sequencing reaction via the flow cell and mixed thoroughly (final concentration 2-8 μM PhTET2 and/or 20-80 μM PhTET3, as indicated according to the experiment). The laser was then unblocked, and data was recorded for 10 hours. For all runs, 30 μL of mineral oil was added to fluid reservoirs at each port of the flow cell to prevent evaporation during the run.

[8] = biological target: T2, QP1165 after cleavage to N-terminal …; experiment: as above
Description: as §1

- PD of a recognition segment in an example trace [1]: 0.48 s
- PD of a recognition segment in an example trace [2]: 3.19 s
- PD of a recognition segment in an example trace [3]: 0.49 s
- PD of a recognition segment in an example trace [4]: 0.36 s
- IPD (interpulse duration) [5]: 7.33 s
- PD (pulse duration) [5]: 1.18 s
- IPD (interpulse duration) [6]: 15.3 s
- PD (pulse duration) [6]: 0.66 s
- IPD (interpulse duration) [7]: 8.79 s
- PD (pulse duration) [7]: 1.01 s
- IPD (interpulse duration) [8]: 17.1 s
- PD (pulse duration) [8]: 0.59 s
B1: PS1223 (designed binder)
single polypeptide, two PS961 units in tandem: MPTAASATESAIEDTPAPARPEVDGRTKPKRQPRYHVVLWDDDDHTYQYVVVMLRSLFGHPPSRGYRMAKEMDTQGRVIVLTTTREHAELKRDQIHAFGRDRLLARSKGSMKASIEAEEGSAGSAAGSGEFGSAGSAAGSGEFGSAGSAAGSGEFMPTAASATESAIEDTPAPARPEVDGRTKPKRQPRYHVVLWDDDDHTYQYVVVMLRSLFGHPPSRGYRMAKEMDTQGRVIVLTTTREHAELKRDQIHAFGRDRLLARSKGSMKASIEAEE
notes: dye-labelled recognizer for N-terminal L, I, V in the six-recognizer runs; also called PS1223 (LIV)
